96 substances from the supplement of paper PMC12042874 can be followed below.

± gives the uncertainty stated by the source.

This data set can be described thus: amyloid nucleation score (Sup35N fusion, yeast selection) (log enrichment); library NNK3; higher = more nucleation; inactive = no reads after selection. Put shortly:
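Three technical output replicates were used for random libraries. Psi-negative yeast expressing peptides of 20 random codons fused to Sup35N were induced with 100 μM copper sulfate for 24 hours and grown 7 days at 30°C on medium lacking adenine and uracil, and input and output plasmid inserts were Illumina-sequenced, excluding sequences with under 100 input reads. The nucleation score is the DiMSum log enrichment of output over input reads, centred on the mode score of non-aggregating sequences.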
With KLSWTPRLLNSYSLLEYVQD, the amyloid nucleation score entry is “inactive”.
Take KLYLLLLYFLDMTVFWFVAV: the amyloid nucleation score result is “inactive”.
With KLYNLFWNVETMVERLLLVA, the amyloid nucleation score entry is “inactive”.
To KMQCPNYACGCKDCVYTNFY belongs “inactive”.
Then KMTFSWSLHHYCKP, with 1.08 ± 0.19.
To KNLKSVSFGRRYAFNSFVFL belongs 1.25 ± 0.11; to KNPTILAFSLGVRGETNRCV, “inactive”.
Regarding KNWYKVMSRYYKC, the amyloid nucleation score came to 0.338 ± 0.38.
To KPNFEPSLAW belongs “inactive”.
Then KPVFYGPIRCFISVCI, with 1.84 ± 0.09; and KQGPWVDTVTVMKTFRMSIN, with “inactive”.
The substance KQSLSMVWRKSDLALKVMVG displayed an amyloid nucleation score of 0.904 ± 0.15.
As to KQVTVNTLMSPPVRYL, the amyloid nucleation score result was “inactive”.
Then KRDLSVIGKCTLNNVSNHCA, with “inactive”.
KRFHMYVHGSDMEVLLAGKC: the amyloid nucleation score result is “inactive”.
Then KRGNSANPS, with “inactive”.
For the substance KRLTMDLFDNCPMLYECEFT, the amyloid nucleation score entry is “inactive”.
To KRLVGLYIYTGMWLKLLQLV belongs “inactive”; to KRSNISV, “inactive”.
To KRTQDCMDRPRMLAAKASPS belongs “inactive”; to KRWTQINYFDWRLLRFATRS, “inactive”; to KRYLGLMQRDVWISDAKLSA, “inactive”.
On to KRYMIPKIYERNENYSFEQI, for which the amyloid nucleation score result was “inactive”.
To KRYNNIAYFVYLLFSLGVTT belongs “inactive”.
To KSASKVGLMKAYRNASRTVI belongs “inactive”; to KSCLGKRLISSFC, “inactive”.
Then KSESEGFNNSIRPWCMFCVS, with “inactive”.
Turning to KSFSHGLFDLRGKRTVEICL, the amyloid nucleation score result was “inactive”.
For the substance KSGRSCYIFVYMWQLTVYSG, the amyloid nucleation score result was “inactive”.
To KSLHTGGGLDSRYGS belongs “inactive”.
Then KSNSSLTRRARYETSTSSSP, with “inactive”; and KSNYEGTFGRHVLGPLKNKW, with -0.463 ± 1.8.
To KSRTIQECMAATYVSVFECF belongs “inactive”; to KSYISVRK, 0.57 ± 0.18; to KTASRCLYCLMKKKDCLPRV, “inactive”.
KTIFSDVFYLRALWCSLNRG: the amyloid nucleation score result was “inactive”.
Then KTISC, with “inactive”; and KTKFVTSLNFTVHFKCWNCD, with 1.51 ± 0.097; and KTMDPILQFFERSTASLLLI, with “inactive”.
For the substance KTWYWVFMLAVFRFIYLNMR, the amyloid nucleation score entry is “inactive”.
To KTYFRHTVRNTSSV belongs 1.52 ± 0.11.
Take KVADSVIEFMLTCWGIRQDS: the amyloid nucleation score entry is “inactive”.
Then KVFFVRTIIKVRVAGCSVRV, with “inactive”; and KVGSKVLEIFINTHYNWYCR, with 0.145 ± 0.53; and KVIDSLVVSRLLTCASRHIR, with 1.32 ± 0.077.
For KVLASCLSHFVDPNLEVSFH, the amyloid nucleation score result was “inactive”.
Substance KVLVFGFQCFIL showed an amyloid nucleation score of 1.56 ± 0.08.
KVSMYRVVWCPASFGVIIVA: the amyloid nucleation score entry was “inactive”.
To KVVARYRRKVCYNWHISEEK belongs “inactive”; to KVYRKKPIGYVECLLSPLKA, “inactive”.
Then KWGSATTCFI, with 0.067 ± 0.31; and KWNNCDF, with “inactive”; and KWRYLFDMSW, with “inactive”.
Then KWSKILAPFILFLKLKSNCS, with “inactive”; and KWSNQGRCEHSVNMFHREWR, with 1.64 ± 0.09.
Regarding KYFPVAQYGRIWVRRPRGQV, the amyloid nucleation score result is “inactive”.
Then KYFRARYHSPSEWLWSMIDW, with “inactive”; and KYLGMMVKNANMLALCYAGW, with -0.279 ± 0.68; and KYLVALVRVRQSNLHS, with “inactive”.
Then KYRPLKSCAHVMRDSIKSGC, with “inactive”.
With KYRQIMNGFKFSRANSFVTV, the amyloid nucleation score result was “inactive”.
Then KYVLSKI, with “inactive”; and KYWICVFFVMIRDPIAYWDD, with “inactive”; and LADNYVTCKS, with “inactive”.
Take LAEGYVSVIRIYKRGWNEDV: the amyloid nucleation score entry is “inactive”.
For LAGTTSASWGGS, the amyloid nucleation score result is “inactive”.
Then LAKCVSVHSIYIHDSICPVG, with “inactive”; and LALLTAADARD, with “inactive”; and LALWFRGPLLLLSSLI, with “inactive”.
Take LARDYSFATHSGLRRKSLKQ: the amyloid nucleation score entry is “inactive”.
As to LARMTCYSDCGSNRGLRRVG, the amyloid nucleation score entry is “inactive”.
Then LASPVNETDTLHRALQMLSK, with “inactive”; and LAWIVCDCIGQCCTFIVRVW, with “inactive”; and LCALP, with “inactive”.
To LCCFCCDPHLR belongs 2.64 ± 0.061.
Then LCFNLYMFCSYVCGMAIKSL, with “inactive”.
In the case of LCGDYGV, the amyloid nucleation score entry was “inactive”.
Then LCHICDAVTSYLLP, with -0.406 ± 1; and LCKDLDTSCVGSFYIFRQKG, with “inactive”.
On to LCLRSVRLCGKAYSINDRRH, for which the amyloid nucleation score result was “inactive”.
With LCVPTSDRELGYRWFRAEWH, the amyloid nucleation score result was “inactive”.
Then LDACILRFARCLEGVDYADK, with “inactive”; and LDDEVEQSTAASDIRLLSTL, with “inactive”.
Then LDEGPPSAWVFATKTNFCES, with “inactive”; and LDFSPWKFSTVGSRSSGMNG, with “inactive”.
For the substance LDILTDAFQLLCNKKHNNKP, the amyloid nucleation score result was “inactive”.
LDKEFAYIYSYC: the amyloid nucleation score entry is “inactive”.
For the substance LDLFVV, the amyloid nucleation score entry was “inactive”.
To LDLLSAVGGVQRLIIHCCWM belongs “inactive”; to LDNDSWTRGLRGYLTYLRER, “inactive”; to LDNISVLIIFL, 1.34 ± 0.11.
Then LDPEP, with “inactive”; and LDRVSTVGSKNLFQRCCKIS, with “inactive”; and LDVSLVVVMPIGLRTEWMSG, with “inactive”.
As for LDVVYRDIIDFRVLVESVYF, the amyloid nucleation score result is “inactive”.
For the substance LDWDFGHDRVRFPERHT, the amyloid nucleation score result was “inactive”.
